What was measured:
[1] = target: T1, P6SHb; assay: two-hybrid library CCNG1;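 note: natural log of median RNA to DNA barcode read ratio; higher means stronger binding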
T1 chain: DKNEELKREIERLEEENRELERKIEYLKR

[2] = target: T2, P2SHb; assay: two-hybrid library CCNG1;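 note: natural log of median RNA to DNA barcode read ratio; higher means stronger binding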
T2 chain: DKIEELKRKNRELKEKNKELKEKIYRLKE

[3] = target: T3, P8SHb; assay: two-hybrid library CCNG1;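 note: natural log of median RNA to DNA barcode read ratio; higher means stronger binding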
T3 chain: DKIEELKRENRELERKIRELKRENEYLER

[4] = target: T4, P9SHb; assay: two-hybrid library CCNG1;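 note: natural log of median RNA to DNA barcode read ratio; higher means stronger binding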
T4 chain: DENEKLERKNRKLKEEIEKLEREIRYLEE

[5] = target: T5, P12SHb; assay: two-hybrid library CCNG1;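 note: natural log of median RNA to DNA barcode read ratio; higher means stronger binding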
T5 chain: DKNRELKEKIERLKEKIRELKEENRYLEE

[6] = target: T6, P4SHb; assay: two-hybrid library CCNG1;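 note: natural log of median RNA to DNA barcode read ratio; higher means stronger binding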
T6 chain: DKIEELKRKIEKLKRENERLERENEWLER

[7] = target: T7, P3SHb; assay: two-hybrid library CCNG1
T7 chain: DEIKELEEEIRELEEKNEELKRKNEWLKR

[8] = target: T8, P5SHb; assay: two-hybrid library CCNG1
T8 chain: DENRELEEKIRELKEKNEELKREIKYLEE

[9] = target: T9, P1SHb; assay: two-hybrid library CCNG1
T9 chain: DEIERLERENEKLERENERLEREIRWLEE

[10] = target: T10, P7SHb; assay: two-hybrid library CCNG1
T10 chain: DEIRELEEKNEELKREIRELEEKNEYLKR

[11] = target: T11, 4H1310-AA; assay: two-hybrid library CCmax; conditions: mean of both orientations
T11 chain: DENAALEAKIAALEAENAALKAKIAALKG

[12] = target: T12, 4H1874-AA; assay: two-hybrid library CCmax; conditions: mean of both orientations
T12 chain: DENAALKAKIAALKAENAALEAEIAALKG

[13] = target: T13, 4H2620-AA; assay: two-hybrid library CCmax; conditions: mean of both orientations
T13 chain: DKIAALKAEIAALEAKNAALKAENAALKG

[14] = target: T14, 4H3697-AA; assay: two-hybrid library CCmax; conditions: mean of both orientations
T14 chain: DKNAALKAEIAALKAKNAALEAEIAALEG

[15] = target: T15, 4H32-AA; assay: two-hybrid library CCmax; conditions: mean of both orientations
T15 chain: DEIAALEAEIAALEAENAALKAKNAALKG

[16] = target: T16, 4H1388-AA; assay: two-hybrid library CCmax; conditions: mean of both orientations
T16 chain: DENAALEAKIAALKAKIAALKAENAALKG

[17] = target: T17, 4H3718-AA; assay: two-hybrid library CCmax; conditions: mean of both orientations
T17 chain: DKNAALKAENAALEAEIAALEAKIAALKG

[18] = target: T18, 4H3413-AA; assay: two-hybrid library CCmax; conditions: mean of both orientations
T18 chain: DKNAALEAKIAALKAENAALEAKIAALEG

[19] = target: T19, 4H384-AA; assay: two-hybrid library CCmax; conditions: mean of both orientations
T19 chain: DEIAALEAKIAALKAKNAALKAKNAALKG

[20] = target: T20, 4H2648-AA; assay: two-hybrid library CCmax; conditions: mean of both orientations
T20 chain: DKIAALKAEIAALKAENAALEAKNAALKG

[21] = target: T21, 4H2611-AA; assay: two-hybrid library CCmax; conditions: mean of both orientations
T21 chain: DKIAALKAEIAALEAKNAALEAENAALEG

[22] = target: T22, 4H697-AA; assay: two-hybrid library CCmax; conditions: mean of both orientations
T22 chain: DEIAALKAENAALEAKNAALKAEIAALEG

[23] = target: T23, 4H1401-AA; assay: two-hybrid library CCmax; conditions: mean of both orientations
T23 chain: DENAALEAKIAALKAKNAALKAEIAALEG

[24] = target: T24, 4H123-AA; assay: two-hybrid library CCmax
T24 chain: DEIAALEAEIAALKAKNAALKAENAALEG

[25] = target: T25, 4H2198-AA; assay: two-hybrid library CCmax; conditions: mean of both orientations
T25 chain: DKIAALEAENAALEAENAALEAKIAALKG

[26] = target: T26, 4H982-AA; assay: two-hybrid library CCmax; conditions: mean of both orientations
T26 chain: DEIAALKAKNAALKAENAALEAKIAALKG

[27] = target: T27, 4H1351-AA; assay: two-hybrid library CCmax; conditions: mean of both orientations
T27 chain: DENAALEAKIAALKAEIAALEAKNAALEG

[28] = target: T28, 4H3133-AA; assay: two-hybrid library CCmax; conditions: mean of both orientations
T28 chain: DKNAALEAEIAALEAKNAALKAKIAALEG

[29] = target: T29, 4H1629-AA; assay: two-hybrid library CCmax; conditions: mean of both orientations
T29 chain: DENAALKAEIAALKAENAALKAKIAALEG

[30] = target: T30, 4H2907-AA; assay: two-hybrid library CCmax; conditions: mean of both orientations
T30 chain: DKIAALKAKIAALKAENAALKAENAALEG

[31] = target: T31, 4H1594-AA; assay: two-hybrid library CCmax; conditions: mean of both orientations
T31 chain: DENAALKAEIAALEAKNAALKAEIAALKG

[32] = target: T32, 4H3162-AA; assay: two-hybrid library CCmax; conditions: mean of both orientations
T32 chain: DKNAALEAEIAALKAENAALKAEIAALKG

[33] = target: T33, 4H3606-AA; assay: two-hybrid library CCmax; conditions: mean of both orientations
T33 chain: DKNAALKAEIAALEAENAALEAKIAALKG

[34] = target: T34, 4H3865-AA; assay: two-hybrid library CCmax; conditions: mean of both orientations
T34 chain: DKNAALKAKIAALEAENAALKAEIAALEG

[35] = target: T35, 4H3631-AA; assay: two-hybrid library CCmax; conditions: mean of both orientations
T35 chain: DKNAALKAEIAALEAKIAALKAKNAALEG

[36] = target: T36, 4H1845-AA; assay: two-hybrid library CCmax; conditions: mean of both orientations
T36 chain: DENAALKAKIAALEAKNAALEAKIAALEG

[37] = target: T37, 4H340-AA; assay: two-hybrid library CCmax; conditions: mean of both orientations
T37 chain: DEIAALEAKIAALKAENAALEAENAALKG

[38] = target: T38, 4H3378-AA; assay: two-hybrid library CCmax
T38 chain: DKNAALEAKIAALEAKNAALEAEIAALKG

[39] = target: T39, 4H2553-AA; assay: two-hybrid library CCmax; conditions: mean of both orientations
T39 chain: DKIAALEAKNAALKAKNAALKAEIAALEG

[40] = target: T40, 4H1513-AA; assay: two-hybrid library CCmax; conditions: mean of both orientations
T40 chain: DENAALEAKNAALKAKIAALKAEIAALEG

[41] = target: T41, 4H3588-AA; assay: two-hybrid library CCmax; conditions: mean of both orientations
T41 chain: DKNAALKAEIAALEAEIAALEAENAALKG

[42] = target: T42, 4H3056-AA; assay: two-hybrid library CCmax; conditions: mean of both orientations
T42 chain: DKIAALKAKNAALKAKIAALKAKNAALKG

DKNRELKEKIERLKEKIRELKEENRYLEE [P12SHb]
interaction score [1]: 0.412
interaction score [2]: -1.12
interaction score [3]: -0.747
interaction score [4]: 1.48
interaction score [5]: -0.206
interaction score [6]: -0.198
interaction score [7]: 0.41
interaction score [8]: 0.0253
interaction score [9]: -1.47
interaction score [10]: -0.593

DEIAALEAEIAALKAKNAALKAENAALEG [4H123-AA]
interaction score [11]: -2
interaction score [12]: -0.134
interaction score [13]: 0.675
interaction score [14]: -1.64
interaction score [15]: 1.79
interaction score [16]: -0.318
interaction score [17]: -0.602
interaction score [18]: -1.35
interaction score [19]: -0.635
interaction score [20]: 2.1
interaction score [21]: 0.00349
interaction score [22]: -0.781
interaction score [23]: -1.83
interaction score [24]: -1.3
interaction score [25]: -0.461
interaction score [26]: -1.15
interaction score [27]: -0.328
interaction score [28]: -2.05
interaction score [29]: -1.79
interaction score [30]: 0.0402
interaction score [31]: -1.9
interaction score [32]: -1.32
interaction score [33]: 1.04
interaction score [34]: -1.93
interaction score [35]: -0.979
interaction score [36]: -1.73
interaction score [37]: 1.64
interaction score [38]: -1.89
interaction score [39]: -1.8
interaction score [40]: -1.7
interaction score [41]: -0.454
interaction score [42]: -2.08

— PMC10397247
